pIC50, pKd: −log10 of the molar value.

The target in one assay is HLA-B*40:01. Nature of the assay: IEDB peptide-MHC binding, purified MHC/direct/fluorescence; filed as Kd, often an IC50 or EC50 that approximates it; ≥ and ≤ were set here for values at or beyond the usual limits of such assays.
The next assay has as its target HLA-B*08:01. In words: IEDB peptide-MHC binding, purified MHC/competitive/radioactivity; filed as Kd, often an IC50 or EC50 that approximates it; ≥ and ≤ were set here for values at or beyond the usual limits of such assays.
A further assay concerns the target HLA-B*15:01. In words: IEDB peptide-MHC binding, purified MHC/direct/fluorescence; filed as Kd, often an IC50 or EC50 that approximates it; ≥ and ≤ were set here for values at or beyond the usual limits of such assays.
The target of assay [1] is HLA-A*02:01. Described as above.
For a further assay, the target named is HLA-A*69:01. The description is as above.
The target of assay [2] is HLA-A*02:01. In words: IEDB peptide-MHC binding, purified MHC/competitive/fluorescence; ≥ and ≤ were set here for values at or beyond the usual limits of such assays.
A further assay deals with HLA-A*31:01. Nature of the assay: IEDB peptide-MHC binding, purified MHC/direct/fluorescence; filed as Kd, often an IC50 or EC50 that approximates it; ≥ and ≤ were set here for values at or beyond the usual limits of such assays. The conditions noted are these: source organism: Burkholderia pseudomallei.
The target in a further assay is HLA-A*03:01. The description is as above.
A further assay deals with HLA-A*30:01. Nature of the assay: IEDB peptide-MHC binding, purified MHC/competitive/radioactivity; filed as Kd, often an IC50 or EC50 that approximates it; ≥ and ≤ were set here for values at or beyond the usual limits of such assays.
The target of a further assay is HLA-A*26:01. The assay is described as above.
The target of assay [3] is HLA-A*01:01. The assay is described as above.
The target in the next assay is HLA-B*58:01. Nature of the assay: IEDB peptide-MHC binding, purified MHC/direct/fluorescence; filed as Kd, often an IC50 or EC50 that approximates it; ≥ and ≤ were set here for values at or beyond the usual limits of such assays.
The next assay has as its target HLA-B*07:02. Described as above. The conditions noted are these: source organism: Escherichia coli O157:H7.
The target of another assay is HLA-B*27:05. Described as above. The conditions noted are these: source organism: Escherichia coli O157:H7.
Another assay has as its target HLA-B*39:01. Nature of the assay: IEDB peptide-MHC binding, purified MHC/competitive/fluorescence; filed as Kd, often an IC50 or EC50 that approximates it; ≥ and ≤ were set here for values at or beyond the usual limits of such assays. The conditions noted are these: source organism: Bacillus anthracis str. A2012.
Assay [4] addresses HLA-A*11:01. In words: IEDB peptide-MHC binding, purified MHC/competitive/radioactivity; filed as Kd, often an IC50 or EC50 that approximates it; ≥ and ≤ were set here for values at or beyond the usual limits of such assays. The conditions noted are these: source organism: Dengue virus 1 Brazil/97-11/1997.
In assay [5] the target is HLA-A*11:01. In words: IEDB peptide-MHC binding, purified MHC/direct/fluorescence; filed as Kd, often an IC50 or EC50 that approximates it; ≥ and ≤ were set here for values at or beyond the usual limits of such assays.
Assay [6] concerns the target HLA-A*01:01. The description is as above. The conditions noted are these: source organism: Yersinia enterocolitica.
The mark [7] stands for this setting: source organism: Dengue virus 1 Brazil/97-11/1997.
Setting [8] is: source organism: Mycobacterium tuberculosis variant bovis.
Where [9] appears, read: source organism: Zaire ebolavirus.
[10] abbreviates: source organism: Vaccinia virus WR.
The mark [11] stands for this setting: source organism: Dengue virus 4 Philippines/H241/1956.
Setting [12] is: source organism: Dengue virus 3 Martinique/1243/1999.
[13] abbreviates: source organism: Escherichia coli O157:H7.
[14] abbreviates: source organism: Mycobacterium tuberculosis.
Where [15] appears, read: source organism: Francisella tularensis subsp. holarctica LVS.
The mark [16] stands for this setting: source organism: Haemophilus influenzae.
The mark [17] stands for this setting: source organism: Yersinia enterocolitica.

In the assay with HLA-B*40:01 (source organism: Mycobacterium tuberculosis variant bovis BCG str. Pasteur 1173P2), AELRHLNPL had a pKd of 7.35.
As for AIKRKLRTL, in the assay with HLA-B*08:01 (setting [7]), the pKd is 7.76.
AISAQVAAY gave a pKd with HLA-B*15:01 (source organism: Mycobacterium tuberculosis F11) of 5.90.
In the case of ALASFLFGF, the pKd with HLA-B*15:01 (source organism: Pseudomonas aeruginosa) was 6.13.
Take ALPGPDGVV: the pKd with HLA-A*02:01 [1] (setting [8]) was 6.26; with HLA-A*69:01 (setting [8]), not above 4.70.
Take ALSSLAKHG: the pIC50 with HLA-A*02:01 [2] (setting [9]) is not above 4.04.
ALVCGLRQL had a pIC50 with HLA-A*02:01 [2] (source organism: Sudan ebolavirus) of 4.64.
Take AQAIGRVER: the negative-log Kd (pKd) in the assay with HLA-A*31:01 was 7.43; with HLA-A*03:01 (source organism: Burkholderia pseudomallei) it was not above 4.70.
For the sequence ATKNGNIFV, the pKd in the assay with HLA-A*30:01 (setting [10]) was 8.41.
For the sequence CIAVGMVTLY, the pKd with HLA-A*26:01 (setting [7]) is 6.32; with HLA-A*01:01 [3] (setting [7]) it was 5.86.
CMKSFFGWK: the pKd with HLA-A*03:01 (source organism: Influenza A virus (A/duck/Fujian/17/2001(H5N1))) is 6.07.
For CPRKRKTVE, the pKd with HLA-B*08:01 (setting [10]) was 6.24.
Consider EEITPHCAL, for which the pKd with HLA-B*40:01 (source organism: Mammarenavirus lassaense) was 7.58.
Consider ELDLHFQRI, for which the pKd with HLA-B*08:01 (setting [10]) was 5.49.
With EMADITGSSP, the pKd in the assay with HLA-A*26:01 (setting [11]) is not above 4.33.
On to EMAEALKGM, for which the negative logarithm of the Kd (pKd) in the assay with HLA-A*26:01 (setting [7]) is 5.08.
Turning to ETKQTGSASS, in the assay with HLA-A*26:01 (source organism: Dengue virus 2 Jamaica/1409/1983), the pKd was not above 4.60.
ETPNMDVIGE: the pKd with HLA-A*26:01 (setting [12]) is 5.96.
Consider ETWVETWAF, for which the pKd with HLA-B*58:01 (setting [13]) is 5.52; with HLA-B*07:02, not above 4.70; with HLA-B*15:01 (setting [13]) it was 5.93; with HLA-B*27:05, not above 4.70; in the assay with HLA-A*02:01 [1] (setting [13]), not above 4.70; with HLA-A*03:01 (setting [13]), not above 4.70.
Regarding FCIKILNPY, in the assay with HLA-A*26:01 (setting [7]), the pKd was 5.11.
FHMSKPSDL: in the assay with HLA-B*39:01, the pKd was 8.11.
Turning to FLKHKYGSL, the pKd in the assay with HLA-B*08:01 (setting [10]) is 9.87.
As for FTEENQWDSA, the pKd in the assay with HLA-A*01:01 [3] (setting [12]) was 6.71.
Consider FTNMEVQLI, for which the pKd with HLA-A*01:01 [3] (setting [7]) was 5.23.
For FYRKKFRPL, the pKd with HLA-B*08:01 (setting [10]) was 10.06.
For the sequence GLFLTTEAV, the pIC50 with HLA-A*02:01 [2] (setting [14]) was 7.30.
Sequence GLFPFHFTL gave a pKd with HLA-A*02:01 [1] (setting [14]) of 9.40.
Take GMHMVAGHD: in the assay with HLA-A*02:01 [2] (setting [9]), the pIC50 was 4.17.
Regarding GSLLTCAKFK, the values for the pKd in the assay with HLA-A*11:01 [4] and with HLA-A*30:01 (setting [7]) were 7.01 and 6.36, respectively.
For the sequence GTTATITPQA, the pKd with HLA-A*30:01 (source organism: Dengue virus 1 Nauru/West Pac/1974) is 6.08.
As to GVYTGSIGY, the pKd is 8.80 in the assay with HLA-A*11:01 [5] (setting [15]) and 8.59 with HLA-A*03:01 (setting [15]).
Regarding HTIENTTAN, in the assay with HLA-A*26:01 (setting [7]), the pKd is 5.64.
Take HVLMHSPLV: in the assay with HLA-A*30:01 (setting [10]), the pKd is 7.52.
With IIGRRLQRL, in the assay with HLA-B*08:01 (setting [11]), the pKd is 6.89.
ILWGYGFLQ: the pKd with HLA-B*58:01 (setting [16]) is 5.32; in the assay with HLA-A*02:01 [1] (setting [16]), 6.66; in the assay with HLA-A*69:01 (setting [16]), 4.89.
On to IMDASSFTL, for which the pKd with HLA-B*40:01 (setting [17]) was 6.36; in the assay with HLA-B*58:01 (setting [17]), 7.31; with HLA-B*15:01 (setting [17]), 6.86; with HLA-A*02:01 [1] (setting [17]) it was 7.51; with HLA-A*01:01 [6], 5.24; with HLA-A*69:01 (setting [17]), 6.00.
Consider IQQLPETYF, for which the pKd was not above 4.29 with HLA-A*11:01 [5] (source organism: SARS-CoV1), not above 4.63 with HLA-B*58:01 (source organism: SARS-CoV1), 6.73 in the assay with HLA-B*15:01 (source organism: SARS-CoV1) and 4.77 with HLA-A*02:01 [1] (source organism: SARS-CoV1).
IRSEELSFT: the pIC50 with HLA-A*02:01 [2] (setting [9]) is not above 2.62.
The sequence KCIEYVTLN gave a pIC50 with HLA-A*02:01 [2] (source organism: Vaccinia virus Copenhagen) not above 3.90.

As a reminder, the pKd is the negative decadic logarithm of the Kd, by convention in mol/L. As a reminder, the pIC50 is the IC50 on a negative log10 scale, so that one unit is a factor of ten. A high value points to a low IC50.

Values taken from the Immune Epitope Database (IEDB).
